Measured values from publication PMC8196007.

Target: solubilized kinase domain of B-Raf (sB-Raf), unlabeled (human) (UniProt P15056)
Assay: native MS; LILBID-MS of the BS3-crosslinked sample and of non-crosslinked mixtures, sB-Raf:CDC-37:FKB-6:HSP-90 = 1:1:1:1 or as indicated; 25 mM Tris, 20 mM KCl, pH 7.5

stoichiometry N: 1
B1: nematode CDC-37 (natural protein)
chain: MPIDYSKWKDIEVSDDEDDTHPNIDTPSLFRWRHQARLERMAEKKMEQEKIDKEKGTTSKKMEELEKKLAAADVTDKSDIQKQIDEVKAQEEAWRKKEAELEEKERLEPWNVDTIGHEAFSTSRINKITEKKPQAPKTDEEDTHAMSTFFETHESLLEKMAVLKNGAKSTELFLAEHPHMASEYTANWLTIEALNAAIDFNEEKMKTMAEQCIIIQYLLELSKSLNAVATNTTVQKQFFKKFEAAEPVYMKHYQDEVKAFEDRLRTRAQTKRDAAMEEAEAEEKAERMKSAPGGIDPQEVFEQLPEEMRKCFEAHDIEALKGVAQKMDEEVFKYHFDRCIASGLWVPGKADDDDDDEEAAPAEEEPTTSS
